Assay results published in patent US20150362488.

Test system: RecQ helicase (Escherichia coli)
Conditions: single-molecule hairpin re-zipping blockage (magnetic tweezers); no ATP; Ftest 10 pN; non-specific binding along template

Question: “mechanically opened DNA hairpin (ssDNA template)” was tested. Which K half did it give?
Answer: 0.226 nM
